Experimental data as given in patent US20260226095A1 (GLYTECH, published 2026).

B1: scFv Ab1 (D2B) of synthesis (scFv)
scFv: EVKLQESGPGLVKPSQSLSLTCSVTGYSITSGYYWNWIRQFPGNKLEWMGSISFDGNNNYNPSLRNRISITRDTSKNQFFLKLNSVTTEDTATYYCAREGDYYGSSFFTYWGQGTLVTVSSGGGGSGGGGSGGGGSALDIVMTQSPASLSASVGETVTLTCGASENIYGALNWYQRKQGKSPQLLIYGATNLADGMSSRFSGSGSGRQYSLKISSLHPDDVATYYCQNVFRTYTFGGGTKLEIKRAAAHHHHHH
modifications: L-pyroglutamic acid (<E) printed at position 1 of segment 1; two disulfide bonds (C22-C96 and C161-C226)
notes: Made by full chemical synthesis, 254 residues ending at H254; also called scFv Ab1 synthesis; scFv D2B
B2: scFv Ab1 RREF (scFv)
scFv: B1 scFv
notes: Produced in a prokaryotic system; Contains two tags (Myc and His); not shown: Myc tag present in RREF in addition to the His tag

Target: hPSMA (purified and soluble antigen) (human (printed as hPSMA), UniProt Q04609 44-750)
Sequence (Q04609 44-750): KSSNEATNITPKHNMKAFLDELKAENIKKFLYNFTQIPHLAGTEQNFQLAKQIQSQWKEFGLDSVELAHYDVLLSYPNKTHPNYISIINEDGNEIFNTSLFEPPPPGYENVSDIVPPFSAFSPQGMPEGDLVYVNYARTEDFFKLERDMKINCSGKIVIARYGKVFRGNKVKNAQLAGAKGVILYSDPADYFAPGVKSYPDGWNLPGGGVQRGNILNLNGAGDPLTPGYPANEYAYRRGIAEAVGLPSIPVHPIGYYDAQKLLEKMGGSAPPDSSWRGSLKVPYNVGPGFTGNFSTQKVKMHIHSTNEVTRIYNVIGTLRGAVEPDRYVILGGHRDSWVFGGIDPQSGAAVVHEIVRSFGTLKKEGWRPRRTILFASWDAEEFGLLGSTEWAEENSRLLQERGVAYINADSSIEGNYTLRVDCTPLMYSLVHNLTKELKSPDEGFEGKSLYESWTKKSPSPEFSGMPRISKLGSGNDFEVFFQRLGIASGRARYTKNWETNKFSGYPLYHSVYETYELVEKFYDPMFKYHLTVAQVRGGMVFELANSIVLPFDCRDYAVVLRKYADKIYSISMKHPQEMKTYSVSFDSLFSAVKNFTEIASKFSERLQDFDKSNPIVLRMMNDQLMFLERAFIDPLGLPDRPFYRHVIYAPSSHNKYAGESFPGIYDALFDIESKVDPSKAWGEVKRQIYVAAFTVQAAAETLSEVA
Assay: SPR, Biacore T200, standard kinetics, antigen immobilized on CM5 chip

Binder | Kd
B1 | 12 nM
B2 | 27 nM
